Results: the supplement of paper PMC9233669
Variants at the floor of the assay were thinned out.

Tests used:
biotinyl-Phe-oxazolone = experiment: self-aminoacylation, catalytic enhancement (BFO) (fold over background); higher = more active; k-Seq, kA / k0A0; sequences stand for … in GGGAAUGGAUCCACAUCUACGAAUUC…UUCACUGCAGACUUGACGAAGCUG
Summary of the method: (§1)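 The uncatalyzed rate is the low-activity peak of a bimodal Gaussian fit, and catalytic enhancement is median kA divided by it. The kA values came from pseudo-first-order fits, with 1000 bootstraps, of per-sequence fraction reacted measured by streptavidin capture, triplicate qPCR and Illumina sequencing. Mutagenized RNA pools with a 21-nt variable region (0.43 μM) were reacted with each biotinyl-aminoacyl-oxazolone at 2–1250 μM in 50 μL HEPES/NaCl/KCl/MgCl2/CaCl2 buffer with 5% acetonitrile, pH 6.9–7.0, for 90 minutes at room temperature.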

biotinyl-Leu-oxazolone = experiment: self-aminoacylation, catalytic enhancement (BLO) (fold over background); higher = more active; k-Seq, kA / k0A0; sequences stand for … in GGGAAUGGAUCCACAUCUACGAAUUC…UUCACUGCAGACUUGACGAAGCUG
Summary of the method: as §1

biotinyl-Trp-oxazolone = experiment: self-aminoacylation, catalytic enhancement (BWO) (fold over background); higher = more active; k-Seq, kA / k0A0; sequences stand for … in GGGAAUGGAUCCACAUCUACGAAUUC…UUCACUGCAGACUUGACGAAGCUG
Summary of the method: as §1

biotinyl-Ile-oxazolone = experiment: self-aminoacylation, catalytic enhancement (BIO) (fold over background); higher = more active; k-Seq, kA / k0A0; sequences stand for … in GGGAAUGGAUCCACAUCUACGAAUUC…UUCACUGCAGACUUGACGAAGCUG
Summary of the method: as §1

biotinyl-Met-oxazolone = experiment: self-aminoacylation, catalytic enhancement (BMO) (fold over background); higher = more active; k-Seq, kA / k0A0; sequences stand for … in GGGAAUGGAUCCACAUCUACGAAUUC…UUCACUGCAGACUUGACGAAGCUG
Summary of the method: as §1

biotinyl-Val-oxazolone = experiment: self-aminoacylation, catalytic enhancement (BVO) (fold over background); higher = more active; k-Seq, kA / k0A0; sequences stand for … in GGGAAUGGAUCCACAUCUACGAAUUC…UUCACUGCAGACUUGACGAAGCUG
Summary of the method: as §1

UUACUUCAAACAAUUGGUCUG [Fam1A.1 aminoacylation ribozyme variant]
self-aminoacylation (biotinyl-Phe-oxazolone): 1.76
self-aminoacylation (biotinyl-Leu-oxazolone): 1.14
self-aminoacylation (biotinyl-Trp-oxazolone): 1.61
self-aminoacylation (biotinyl-Ile-oxazolone): 1.43
self-aminoacylation (biotinyl-Met-oxazolone): 1.2
self-aminoacylation (biotinyl-Val-oxazolone): 1.12

UUCACCCUGGUCAUCGAGUGA [Fam2.1 aminoacylation ribozyme variant]
self-aminoacylation (biotinyl-Phe-oxazolone): 13.2
self-aminoacylation (biotinyl-Leu-oxazolone): 10.6
self-aminoacylation (biotinyl-Trp-oxazolone): 12.7
self-aminoacylation (biotinyl-Ile-oxazolone): 5.88
self-aminoacylation (biotinyl-Met-oxazolone): 11.3
self-aminoacylation (biotinyl-Val-oxazolone): 6.29

UUGCACCUAGGUCAUCGGGUG [Fam2.2 aminoacylation ribozyme variant]
self-aminoacylation (biotinyl-Phe-oxazolone): 38.8
self-aminoacylation (biotinyl-Leu-oxazolone): 4.63
self-aminoacylation (biotinyl-Trp-oxazolone): 5.53
self-aminoacylation (biotinyl-Ile-oxazolone): 3.11
self-aminoacylation (biotinyl-Met-oxazolone): 3.89
self-aminoacylation (biotinyl-Val-oxazolone): 3.66

UUUAACCUAGGUCAUCGGGUG [Fam2.2 aminoacylation ribozyme variant]
self-aminoacylation (biotinyl-Phe-oxazolone): 36.3
self-aminoacylation (biotinyl-Leu-oxazolone): 7.42
self-aminoacylation (biotinyl-Trp-oxazolone): 7.19
self-aminoacylation (biotinyl-Ile-oxazolone): 5.19
self-aminoacylation (biotinyl-Met-oxazolone): 5.87
self-aminoacylation (biotinyl-Val-oxazolone): 4.48

UUUAACCUGGUCAUCGAGUGA [Fam2.1 aminoacylation ribozyme variant]
self-aminoacylation (biotinyl-Phe-oxazolone): 11.2
self-aminoacylation (biotinyl-Leu-oxazolone): 5.8
self-aminoacylation (biotinyl-Trp-oxazolone): 8.93
self-aminoacylation (biotinyl-Ile-oxazolone): 4.01
self-aminoacylation (biotinyl-Met-oxazolone): 5.83
self-aminoacylation (biotinyl-Val-oxazolone): 4.17

UUUACCCAGGUCAUCGAGUGA [Fam2.1 aminoacylation ribozyme variant]
self-aminoacylation (biotinyl-Phe-oxazolone): 21.9
self-aminoacylation (biotinyl-Leu-oxazolone): 5.06
self-aminoacylation (biotinyl-Trp-oxazolone): 6
self-aminoacylation (biotinyl-Ile-oxazolone): 3.49
self-aminoacylation (biotinyl-Met-oxazolone): 5.36
self-aminoacylation (biotinyl-Val-oxazolone): 3.55

UUUACCCCGGUCAUCGAGUGA [Fam2.1 aminoacylation ribozyme variant]
self-aminoacylation (biotinyl-Phe-oxazolone): 35.5
self-aminoacylation (biotinyl-Leu-oxazolone): 6.37
self-aminoacylation (biotinyl-Trp-oxazolone): 6.13
self-aminoacylation (biotinyl-Ile-oxazolone): 3.31
self-aminoacylation (biotinyl-Met-oxazolone): 6.14
self-aminoacylation (biotinyl-Val-oxazolone): 3.64

UUUACCCUGGGCAUCGAGUGA [Fam2.1 aminoacylation ribozyme variant]
self-aminoacylation (biotinyl-Phe-oxazolone): 10.4
self-aminoacylation (biotinyl-Leu-oxazolone): 4.84
self-aminoacylation (biotinyl-Trp-oxazolone): 5.06
self-aminoacylation (biotinyl-Ile-oxazolone): 2.3
self-aminoacylation (biotinyl-Met-oxazolone): 4.18
self-aminoacylation (biotinyl-Val-oxazolone): 2.83

UUUACCCUGGUAAUCGAGUGA [Fam2.1 aminoacylation ribozyme variant]
self-aminoacylation (biotinyl-Phe-oxazolone): 58.7
self-aminoacylation (biotinyl-Leu-oxazolone): 8.58
self-aminoacylation (biotinyl-Trp-oxazolone): 10.4
self-aminoacylation (biotinyl-Ile-oxazolone): 4.2
self-aminoacylation (biotinyl-Met-oxazolone): 9.02
self-aminoacylation (biotinyl-Val-oxazolone): 3.97

UUUACCCUGGUCAUCAAGUGA [Fam2.1 aminoacylation ribozyme variant]
self-aminoacylation (biotinyl-Phe-oxazolone): 3.22
self-aminoacylation (biotinyl-Leu-oxazolone): 1.85
self-aminoacylation (biotinyl-Trp-oxazolone): 3.07
self-aminoacylation (biotinyl-Ile-oxazolone): 1.25
self-aminoacylation (biotinyl-Met-oxazolone): 2.24
self-aminoacylation (biotinyl-Val-oxazolone): 1.63

UUUACCCUGGUCAUCGAGUGG [Fam2.1 aminoacylation ribozyme variant]
self-aminoacylation (biotinyl-Phe-oxazolone): 154
self-aminoacylation (biotinyl-Leu-oxazolone): 27.3
self-aminoacylation (biotinyl-Trp-oxazolone): 29.3
self-aminoacylation (biotinyl-Ile-oxazolone): 8.85
self-aminoacylation (biotinyl-Met-oxazolone): 31.5
self-aminoacylation (biotinyl-Val-oxazolone): 9.95

UUUACCCUGGUCAUCGAGUUA [Fam2.1 aminoacylation ribozyme variant]
self-aminoacylation (biotinyl-Phe-oxazolone): 16.7
self-aminoacylation (biotinyl-Leu-oxazolone): 6.2
self-aminoacylation (biotinyl-Trp-oxazolone): 6.24
self-aminoacylation (biotinyl-Ile-oxazolone): 3.03
self-aminoacylation (biotinyl-Met-oxazolone): 7.29
self-aminoacylation (biotinyl-Val-oxazolone): 3.5

UUUACCCUGGUCAUUGAGUGA [Fam2.1 aminoacylation ribozyme variant]
self-aminoacylation (biotinyl-Phe-oxazolone): 38.1
self-aminoacylation (biotinyl-Leu-oxazolone): 7.06
self-aminoacylation (biotinyl-Trp-oxazolone): 10.1
self-aminoacylation (biotinyl-Ile-oxazolone): 3.76
self-aminoacylation (biotinyl-Met-oxazolone): 7.86
self-aminoacylation (biotinyl-Val-oxazolone): 3.91

UUUACCCUGGUUAUCGAGUGA [Fam2.1 aminoacylation ribozyme variant]
self-aminoacylation (biotinyl-Phe-oxazolone): 25.7
self-aminoacylation (biotinyl-Leu-oxazolone): 7.57
self-aminoacylation (biotinyl-Trp-oxazolone): 10.6
self-aminoacylation (biotinyl-Ile-oxazolone): 4.28
self-aminoacylation (biotinyl-Met-oxazolone): 7.81
self-aminoacylation (biotinyl-Val-oxazolone): 4.19

UUUACCCUGUUCAUCGAGUGA [Fam2.1 aminoacylation ribozyme variant]
self-aminoacylation (biotinyl-Phe-oxazolone): 5.37
self-aminoacylation (biotinyl-Leu-oxazolone): 3.91
self-aminoacylation (biotinyl-Trp-oxazolone): 5.71
self-aminoacylation (biotinyl-Ile-oxazolone): 2.21
self-aminoacylation (biotinyl-Met-oxazolone): 4.11
self-aminoacylation (biotinyl-Val-oxazolone): 2.56

UUUACCCUUGUCAUCGAGUGA [Fam2.1 aminoacylation ribozyme variant]
self-aminoacylation (biotinyl-Phe-oxazolone): 19.9
self-aminoacylation (biotinyl-Leu-oxazolone): 6.18
self-aminoacylation (biotinyl-Trp-oxazolone): 7.94
self-aminoacylation (biotinyl-Ile-oxazolone): 3.37
self-aminoacylation (biotinyl-Met-oxazolone): 6.04
self-aminoacylation (biotinyl-Val-oxazolone): 3.38

UUUACCGUGGUCAUCGAGUGA [Fam2.1 aminoacylation ribozyme variant]
self-aminoacylation (biotinyl-Phe-oxazolone): 17.7
self-aminoacylation (biotinyl-Leu-oxazolone): 5.18
self-aminoacylation (biotinyl-Trp-oxazolone): 7.07
self-aminoacylation (biotinyl-Ile-oxazolone): 3.2
self-aminoacylation (biotinyl-Met-oxazolone): 5.63
self-aminoacylation (biotinyl-Val-oxazolone): 3.63

UUUCACCUAGGACAUCGGGUG [Fam2.2 aminoacylation ribozyme variant]
self-aminoacylation (biotinyl-Phe-oxazolone): 26.8
self-aminoacylation (biotinyl-Leu-oxazolone): 3.31
self-aminoacylation (biotinyl-Trp-oxazolone): 4.64
self-aminoacylation (biotinyl-Ile-oxazolone): 3
self-aminoacylation (biotinyl-Met-oxazolone): 3.39
self-aminoacylation (biotinyl-Val-oxazolone): 3.19

UUUCACCUAGUUCAUCGGGUG [Fam2.2 aminoacylation ribozyme variant]
self-aminoacylation (biotinyl-Phe-oxazolone): 18.6
self-aminoacylation (biotinyl-Leu-oxazolone): 2.99
self-aminoacylation (biotinyl-Trp-oxazolone): 3.92
self-aminoacylation (biotinyl-Ile-oxazolone): 2.44
self-aminoacylation (biotinyl-Met-oxazolone): 2.6
self-aminoacylation (biotinyl-Val-oxazolone): 3.09

UUUCGCCUAGGUCAUCGGGUG [Fam2.2 aminoacylation ribozyme variant]
self-aminoacylation (biotinyl-Phe-oxazolone): 44.1
self-aminoacylation (biotinyl-Leu-oxazolone): 7.49
self-aminoacylation (biotinyl-Trp-oxazolone): 7.75
self-aminoacylation (biotinyl-Ile-oxazolone): 5.36
self-aminoacylation (biotinyl-Met-oxazolone): 6.25
self-aminoacylation (biotinyl-Val-oxazolone): 5.33

UUUGACCUAGGUCAUCGGGUG [Fam2.2 aminoacylation ribozyme variant]
self-aminoacylation (biotinyl-Phe-oxazolone): 26.6
self-aminoacylation (biotinyl-Leu-oxazolone): 5.93
self-aminoacylation (biotinyl-Trp-oxazolone): 6.51
self-aminoacylation (biotinyl-Ile-oxazolone): 4.3
self-aminoacylation (biotinyl-Met-oxazolone): 4.5
self-aminoacylation (biotinyl-Val-oxazolone): 4.23
